The text below walks through data of patent US11135301B2, “Triblock polypeptide-based nanoparticles for the delivery of hydrophilic drugs” (Duke University, priority 2016, dated 2021).

Where “and” joins values, the source holds several entries; their conditions need not be identical. Identical values can stand only once. Counter-ions that a name gives are not always drawn.

Data set [1] is described as follows: SMM conjugation ratio by Ellman's reagent assay. Format: physicochemical.
Experimental: Determination of SMM Conjugation Ratio:
Following purification, 2-3 mg of lyophilized ATBP was dissolved in 1 mL ddH20. In order to break any pre-existing disulfide bonds between unconjugated cysteine residues, 100 μL of the conjugate was incubated with 100 μL of Immobilized TCEP Reducing Gel (Thermo Fisher Scientific; Rockford, Ill.) for 1 hr at 25° C. Included spin columns were utilized to separate the TCEP beads from the ATBP conjugates. The solution was then split for use in two parallel assays. To determine the ATBP concentration, a 96-well bicinchoninic acid assay (Thermo Fisher Scientific) was used on a Victor3™ microplate reader (Perkin Elmer; Waltham, Mass.). 10 μL of ATBP solution was mixed with 200 μL of BCA working reagent, incubated for 30 min at 37° C., and was compared to an ATBP standard curve (100, 50, 25, 10, 5, 0 μM) fit to a 2nd order polynomial in order to estimate the ATBP concentration for the absorbance at 560 nm. Each conjugate was measured in triplicate. To determine the concentration of free thiols, a 96-well Ellman's assay was developed for use on the Victor3™ microplate reader at an absorbance of 405 nm. 40 μL of an ATBP solution was mixed with 200 μL of a working reagent (25 μM Ellman's reagent in 100 mM phosphate buffer, 1 mM EDTA, pH 8.0), incubated for 2 h at 25° C., and was compared to a standard curve of the ATBP prior to conjugation (100, 50, 25, 10, 5, 0 μM). […] The conjugation ratio was the difference between the number of cysteines (8/ATBP) and the calculated number of free cysteines.
The nature of data set [2]: Dynamic light scattering (hydrodynamic radius). Format: physicochemical. As to conditions: ATBP or ATBP-SMM conjugate nanoparticles, DLS in PBS at 22° C. The protocol: (§1) Static and Dynamic Light Scattering:
(§2) Static and dynamic light scattering measurements were performed on an ALV/CGS-3 goniometer system (Langen, Germany) to determine the Rh and Rg of the ATBP and ATBP-SMM nanoparticle. For the ALV/CGS-3 goniometer system, ATBP and ATBP-SMM conjugates were resuspended in PBS and filtered through 0.22 μm Millex-GV filters into a 10 mm diameter disposable borosilicate glass tube (Fisher). SLS and DLS were measured simultaneously at 22° C. for angles between 30°-150° at 5° increments, where the measurements at each angle was of 3 runs for 15 seconds. The differential refractive index (dn/dc) was quantified by determining the refractive index at five different dilutions using an Abbemat 500 refractometer (Anton Paar, Graz, Austria). DLS data were analyzed by fitting the autocorrelation function to a biexponential decay using the HDRC software package (Germany). The Rh was plotted against angle and extrapolated to zero scattering angle in order to eliminate the effect of the form factor and observe the true hydrodynamic radius. Partial Zimm plots were used to analyze the SLS measurements and ALV/Dynamic and Static FIT and PLOT software was used to determine the Rg and MW of the nanoparticles. The Nagg was calculated by dividing the MW of the nanoparticles by the MW of the ATBP or ATBP-SMM conjugate.
(§3) The detailed procedure was identical to that used to characterize ATBP-SMM conjugates.

The nature of data set [3]: Static light scattering (Rg, Nagg, shape factor). It counts as physicochemical. The following applies: for ρ (Rg/Rh) shape factor: computed from DLS and SLS data; for Nagg (chains per nanoparticle) / Rg: nanoparticles; for Nagg (chains per nanoparticle): SLS; for Rg: SLS partial Zimm plot. The protocol:
as §1, §2, §3

Data set [4] in a line: Pyrene fluorescence assay (critical aggregation concentration). Format: physicochemical. The protocol: The CAC of ATBP and ATBP-SMM conjugates were determined by fluorescence spectroscopy using pyrene which was utilized as a probe of the local hydrophobicity. The ratio of the first fluorescence emission peak (I370-373) and the third peak (I381-394) were measured at different ATBP concentrations. The inflection point of the curves was used to determine the CAC.
ATBP-GEM was characterized by DLS, SLS, cryo-TEM, AFM, temperature programmed turbidimetry and pyrene fluorescence assay. The detailed procedure was identical to that used to characterize ATBP-SMM conjugates.

A short description of data set [5]: Temperature-programmed turbidimetry (transition temperature Tt). As to conditions: for Tt, Concentration 25 μM / Tt, Concentration 50 μM / Tt, Concentration 100 μM: ATBP or ATBP-SMM conjugate in PBS; for Tt, Concentration 25 μM: ATBP concentration 25 μM; for Tt, Concentration 50 μM: ATBP concentration 50 μM; for Tt, Concentration 100 μM: ATBP concentration 100 μM. Format: physicochemical. The protocol: Temperature-Programmed Turbidimetry:
To determine the Tt ATBP-SMM conjugate or parent ATBP were resuspended in PBS at ATBP concentrations of […] and the optical density of each sample was measured at 350 nm by ramping the temperature at a rate of 1° C./min on a temperature-controlled UV-vis spectrophotometer (Cary 300 Bio; Varian Instruments, Palo Alto, Calif.). The Tt was determined from the inflection point of the turbidity profile. […]

Data set [6] has as its system HCT116 human colon cancer cells. Description: In vitro cytotoxicity (MTS), HCT116. Format: cell-based. As to conditions: HCT-116, 72 h, HCT-116 cells, GEM equivalent. The protocol: (§4) HCT116 and Colo205 human colon cancer cells were procured from Duke Cell Culture Facility and were cultured in complete media containing Minimum Essential Medium Eagle (MEME) supplemented with 10% Fetal Bovine Serum (FBS). Cells were maintained at 37° C. and 5% CO2 and passaged every 2-3 days. […] 20 μL of CellTiter 96 AQueous™ (Promega; Madison, Wis.) 3-(4,5,-[…])-5-(3-carboxymethoxyphenyl)-2-(4-sulfophenyl)-2H-tetrazolium (MTS) solution was added to each well and incubated at 37° C. After 2 h of incubation, the absorbance of the solution was measured at 490 nm with a Victor3 microplate reader (Perkin Elmer; Waltham, Mass.).

For data set [7], the system named is Colo205 human colon cancer cells. Nature of the data set: In vitro cytotoxicity (MTS), Colo205. As to conditions: COLO 205, 72 h, Colo 205 cells, GEM equivalent. It counts as cell-based. The protocol: as §4
The conditions of data set [8]: reported value in nude mice; cited from earlier work.
The test system of data set [9] is subcutaneous HCT116 tumors. Description: Tumor regression, subcutaneous HCT116 xenograft. It counts as in vivo, mice. The following applies: 25 mg·kg^−1 GEM equivalent i.v. on day 0, 2 and 4, n=6.
Experimental: The PBS control or drugs were administered by tail vein infusion (50 μL/min) of 500 μL. Tumor dimensions and BW were determined 3-4 times a week, and the tumor volume was calculated using the equation: volume [mm^3]=length×width×width×1/2.
BW of mice were monitored and the mice were euthanized upon exceeding 15% loss in BW or if their tumors volume was greater than 1000 mm^3. […] The maximum tolerated dose (MTD) was determined in mice with tumors. Kaplan-Meier analysis was used to compare the cumulative survival and the Sidak test, Tukey Test, Wilcoxon test were carried out using GraphPad Prism 6 software.
Setting [10] is: Table 1, ATBP or ATBP-SMM conjugate, pyrene assay.

In the case of `CC(C)(C)N1C(=O)C=CC1=O` [SMM 8, N-^tbutyl maleimide], in [1], the “#SMM/ATBP (number of SMM conjugated per ATBP)” value turned out to be 6.4. For the same molecule, the Rh in data set [2] worked out at 46.2 nm. Further, in [3], the “ρ (Rg/Rh) shape factor” value is 0.963, the “Nagg (chains per nanoparticle)” value is given as 93 and the Rg was found to be 44.5 nm. Besides, the CAC in data set [4] (setting [10]) was determined as 1.5 µM. Moreover, in data set [5], the “Tt, Concentration 25 μM” value is 44 C; the “Tt, Concentration 50 μM” value was determined as 47 C; the “Tt, Concentration 100 μM” value is reported as 41 C.

Consider `O=C1C=CC(=O)N1c1ccccc1` [SMM 7, N-Phenyl maleimide], for which the “#SMM/ATBP (number of SMM conjugated per ATBP)” value in data set [1] is 7.0. In data set [2], this molecule displayed a Rh of 49.1 nm. Further, in data set [3], the “ρ (Rg/Rh) shape factor” value is on record as 0.905, the “Nagg (chains per nanoparticle)” value is listed as 112 and the Rg is reported as 44.4 nm. The same molecule displayed a CAC in data set [4] (setting [10]) of 1.6 µM. Also, in data set [5], the “Tt, Concentration 25 μM” value turned out to be 48 C; the “Tt, Concentration 50 μM” value came to 44 C; the “Tt, Concentration 100 μM” value turned out to be 41 C.

Regarding `Nc1ccn([C@@H]2O[C@H](CO)[C@@H](O)C2(F)F)c(=O)n1` [GEM, Gemcitabine], the IC50 is around 4.1 nM in [6] and around 46.4 nM in data set [7]. Further, the terminal half-life in data set [8] is 204 min. The median survival time in data set [9] worked out at 21 days. For the same molecule, the mean tumor volume in data set [9] (12 days after treatment) is reported as 343 mm^3.

In the case of `CN1C(=O)C=CC1=O` [SMM 5, N-methyl maleimide], the “#SMM/ATBP (number of SMM conjugated per ATBP)” value in data set [1] is on record as 6.8. This molecule also displayed a Rh in data set [2] of 46.8 nm. Further, in [3], the “ρ (Rg/Rh) shape factor” value was determined as 0.978, the “Nagg (chains per nanoparticle)” value came out at 62 and the Rg is 45.7 nm. Moreover, the CAC in [4] (setting [10]) stood at 4.9 µM. In data set [5], the “Tt, Concentration 25 μM” value was 45 C; the “Tt, Concentration 50 μM” value amounted to 44 C; the “Tt, Concentration 100 μM” value was determined as 42 C.

Turning to `Cl.NCCN1C(=O)C=CC1=O` [SMM 2, N-1-(2-Amino-ethyl)-pyrrole-2,5-dione hydrochloride], the “#SMM/ATBP (number of SMM conjugated per ATBP)” value in data set [1] stood at 6.9. In data set [2], this molecule showed a Rh of 123.5 nm. Besides, in data set [3], the “ρ (Rg/Rh) shape factor” value is reported as 1.14, the “Nagg (chains per nanoparticle)” value came out at 50 and the Rg was 141.0 nm. In data set [4] (setting [10]), this molecule registered a CAC of 6.6 µM. Also, in data set [5], the “Tt, Concentration 25 μM” value came to 49 C; the “Tt, Concentration 50 μM” value came out at 46 C; the “Tt, Concentration 100 μM” value was found to be 41 C.

`CS(=O)(=O)OCCN1C(=O)C=CC1=O` [SMM 3, N-2-Maleimidoethyl mesylate]: the “#SMM/ATBP (number of SMM conjugated per ATBP)” value in data set [1] is 6.9. In data set [2], this molecule registered a Rh of 109.1 nm. In data set [3], the “ρ (Rg/Rh) shape factor” value came out at 1.06, the “Nagg (chains per nanoparticle)” value is on record as 219 and the Rg worked out at 115.6 nm. In data set [4] (setting [10]), this molecule gave a CAC of 3.2 µM. Moreover, in data set [5], the “Tt, Concentration 25 μM” value is listed as 45 C; the “Tt, Concentration 50 μM” value turned out to be 42 C; the “Tt, Concentration 100 μM” value was 38 C.

For the molecule `O=C1C=CC(=O)N1O` [SMM 1, N-hydroxymaleimide], the “#SMM/ATBP (number of SMM conjugated per ATBP)” value in data set [1] was determined as 7.4. The same molecule yielded a Rh in data set [2] of 87.3 nm. Also, in [3], the “ρ (Rg/Rh) shape factor” value is 0.81, the “Nagg (chains per nanoparticle)” value was 41 and the Rg was determined as 77.0 nm. Moreover, the CAC in data set [4] (setting [10]) worked out at 8.2 µM. Further, in [5], the “Tt, Concentration 25 μM” value came out at 49 C; the “Tt, Concentration 50 μM” value worked out at 46 C; the “Tt, Concentration 100 μM” value is on record as 41 C.

On to `CCN1C(=O)C=CC1=O` [SMM 6, N-ethyl maleimide], for which the “#SMM/ATBP (number of SMM conjugated per ATBP)” value in [1] worked out at 7.1. This molecule also displayed a Rh in [2] of 62.3 nm. In data set [3], the “ρ (Rg/Rh) shape factor” value was 1.004, the “Nagg (chains per nanoparticle)” value turned out to be 115 and the Rg is given as 62.5 nm. This molecule also registered a CAC in data set [4] (setting [10]) of 3.8 µM. In [5], the “Tt, Concentration 25 μM” value amounted to 47 C; the “Tt, Concentration 50 μM” value amounted to 46 C; the “Tt, Concentration 100 μM” value is 40 C.

B1: SKGPG-(AGVPG)160-(YG)6-(CGG)8-WP (protein)
chain: SKGPGAGVPGAGVPGAGVPGAGVPGAGVPGAGVPGAGVPGAGVPGAGVPGAGVPGAGVPGAGVPGAGVPGAGVPGAGVPGAGVPGAGVPGAGVPGAGVPGAGVPGAGVPGAGVPGAGVPGAGVPGAGVPGAGVPGAGVPGAGVPGAGVPGAGVPGAGVPGAGVPGAGVPGAGVPGAGVPGAGVPGAGVPGAGVPGAGVPGAGVPGAGVPGAGVPGAGVPGAGVPGAGVPGAGVPGAGVPGAGVPGAGVPGAGVPGAGVPGAGVPGAGVPGAGVPGAGVPGAGVPGAGVPGAGVPGAGVPGAGVPGAGVPGAGVPGAGVPGAGVPGAGVPGAGVPGAGVPGAGVPGAGVPGAGVPGAGVPGAGVPGAGVPGAGVPGAGVPGAGVPGAGVPGAGVPGAGVPGAGVPGAGVPGAGVPGAGVPGAGVPGAGVPGAGVPGAGVPGAGVPGAGVPGAGVPGAGVPGAGVPGAGVPGAGVPGAGVPGAGVPGAGVPGAGVPGAGVPGAGVPGAGVPGAGVPGAGVPGAGVPGAGVPGAGVPGAGVPGAGVPGAGVPGAGVPGAGVPGAGVPGAGVPGAGVPGAGVPGAGVPGAGVPGAGVPGAGVPGAGVPGAGVPGAGVPGAGVPGAGVPGAGVPGAGVPGAGVPGAGVPGAGVPGAGVPGAGVPGAGVPGAGVPGAGVPGAGVPGAGVPGAGVPGAGVPGAGVPGAGVPGAGVPGAGVPGAGVPGAGVPGAGVPGAGVPGAGVPGAGVPGAGVPGAGVPGAGVPGAGVPGAGVPGAGVPGAGVPGAGVPGAGVPGAGVPGAGVPGAGVPGYGYGYGYGYGYGCGGCGGCGGCGGCGGCGGCGGCGGWP
For B1, in data set [2], the Rh was 50 nm and 50.1 nm. Moreover, in data set [3], the “ρ (Rg/Rh) shape factor” value was 0.85, the “Nagg (chains per nanoparticle)” value is 62 and the Rg was 42.6 nm. Moreover, the CAC in data set [4] (setting [10]) was found to be 3.6 µM. The CAC result in data set [4] (pyrene fluorescence assay) is given as “about 3.6 μM”. In data set [5], the “Tt, Concentration 25 μM” value amounted to 47 C; the “Tt, Concentration 50 μM” value amounted to 44 C; the “Tt, Concentration 100 μM” value stood at 40 C. The Tt in data set [5] (FIG. 3(G), thermal turbidimetry at 350 nm) came out at 47 °C.
